In publication doi:10.1101/2024.10.21.619419 (bioRxiv, 2024):

Target: the molecule itself
Assay: SEC

B1: Bxb1 residues 2-500 (enzyme, Mycobacteriophage Bxb1, UniProt Q9B086 2-500, looked up)
chain: RALVVIRLSRVTDATTSPERQLESCQQLCAQRGWDVVGVAEDLDVSGAVDPFDRKRRPNLARWLAFEEQPFDVIVAYRVDRLTRSIRHLQQLVHWAEDHKKLVVSATEAHFDTTTPFAAVVIALMGTVAQMELEAIKERNRSAAHFNIRAGKYRGSLPPWGYLPTRVDGEWRLVPDPVQRERILEVYHRVVDNHEPLHLVAHDLNRRGVLSPKDYFAQLQGREPQGREWSATALKRSMISEAMLGYATLNGKTVRDDDGAPLVRAEPILTREQLEALRAELVKTSRAKPAVSTPSLLLRVLFCAVCGEPAYKFAGGGRKHPRYRCRSMGFPKHCGNGTVAMAEWDAFCEEQVLDLLGDAERLEKVWVAGSDSAVELAEVNAELVDLTSLIGSPAYRAGSPQREALDARIAALAARQEELEGLEARPSGWEWRETGQRFGDWWREQDTAAKNTWLRSMNVRLTFDVRGGLTRTIDFGDLQEYEQHLRLGSVVERLHTGMS
- stoichiometry N: 2
